In patent publication US20140162285A1, “Methods of Modulating Vesicular Trafficking” (The General Hospital Corporation, priority 2009, published 2014):

Biological target: T1, ARNO Sec7-domain (Homo sapiens, UniProt Q99418)
T1 construct: iii) 61-252aa, Sec7 domain; made in house; host or cells: E. coli BL21(DE3)
T1 sequence (Q99418 61-252): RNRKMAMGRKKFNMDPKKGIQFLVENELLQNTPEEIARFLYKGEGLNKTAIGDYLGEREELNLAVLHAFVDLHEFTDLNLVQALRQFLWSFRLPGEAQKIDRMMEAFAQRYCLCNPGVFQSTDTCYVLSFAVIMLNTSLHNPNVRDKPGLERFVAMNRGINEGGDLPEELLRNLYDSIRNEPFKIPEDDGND
Test: GST pull-down of in vitro translated a2N with ARNO Sec7-domain
Format: binding
Conditions: Western blot anti-a2N
Description: The purified recombinant GST-ARNO(wt) and GST-tagged ARNO domain constructs ([…]) were incubated with 10 μl of in vitro translated 6His-a2N recombinant protein at 4° C. for 2 hours in 500 μl of binding buffer (10 mM HEPES, 1 mM EDTA, 1 mM DTT, 100 mM NaCl, 10% glycerol, 0.1% NP-40) with gentle rotation. Then the interacting recombinant proteins were immobilized on glutathione beads by incubation with 50 μl of 50% glutathione Sepharose 4B slurry for 2 hours at 4° C. The beads were collected by centrifugation and washed 5 times with 500 μl ice-cold binding buffer. Interacting proteins were eluted by boiling in SDS-PAGE sample buffer for 10 min at 95° C., resolved by SDS-PAGE and analyzed by Western blotting using polyclonal anti-a2N antibodies. […]
To examine the ability of these well-defined and functionally distinct domains of ARNO to interact with a2N1-402, full-length ARNO(wt) and its four domains were cloned separately for bacterial expression of recombinant proteins (FIG. 3). […] Interacting proteins were detected by western blot analysis with a2-specific antibodies as described above.

B1: a2N: recombinant N-terminal cytosolic tail, amino acid residues 1-402 of mouse V-ATPase a2-subunit (protein)
chain: MGSLFRSESMCLAQLFLQSGTAYECLSALGEKGLVQFRDLNQNVSSFQRKFVGEVKRCEELERILVYLVQEITRADIPLPEGEASPPAPPLKHVLEMQEQLQKLEVELREVTKNKEKLRKNLLELVEYTHMLRVTKTFLKRNVEFEPTYEEFPALENDSLLDYSCMQRLGAKLGFVSGLIQQGRVEAFERMLWRACKGYTIVTYAELDECLEDPETGEVIKWYVFLISFWGEQIGHKVKKICDCYHCHIYPYPNTAEERREIQEGLNTRIQDLYTVLHKTEDYLRQVLCKAAESVCSRVVQVRKMKAIYHMLNMCSFDVTNKCLIAEVWCPEVDLPGLRRALEEGSRESGATIPSFMNTIPTKETPPTLIRTNKFTEGFQNIVDAYGVGSYREVNPALFTII
modifications: left off: small tags and cut ends
notes: recombinant N-terminal cytosolic tail, amino acid residues 1-402 of mouse V-ATPase a2-subunit
Q: Which “interaction of a2N with ARNO Sec7-domain” value does the source give for B1 here?
A: interacts strongly
